{
  "source": "paper PMC3191170",
  "about": "“Epigenetic Control of Viral Life-Cycle by a DNA-Methylation Dependent Transcription Factor”",
  "binders": {"B1": {"name": "Rp (-114) / CpG5 O, methylated (dsDNA)", "DNA 1": "CACTCATACTTAAGCGATGCTGATGCA", "DNA 2": "TGCATCAGCATCGCTTAAGTATGAGTG", "modifications": "5mC at CpG, both strands (M.SssI or synthesis)"}, "B2": {"name": "Rp (-114) / CpG5 O, unmethylated (dsDNA)", "DNA 1": "CACTCATACTTAAGCGATGCTGATGCA", "DNA 2": "TGCATCAGCATCGCTTAAGTATGAGTG"}, "B3": {"name": "Zp (-96) (dsDNA)", "DNA 1": "TAAATTTAGGTGTGTCTATGAGGTACA", "DNA 2": "TGTACCTCATAGACACACCTAAATTTA"}},
  "conditions_in_all_cases": "protein: ivt; chain copies: 2; label: 32P",
  "key": {"[1]": {"molecular_target": "T1, Zta (BZLF1, ZEBRA, EB1) (Epstein-Barr virus (B95-8 strain), UniProt P03206 1-245)", "T1 sequence (P03206 whole entry)": "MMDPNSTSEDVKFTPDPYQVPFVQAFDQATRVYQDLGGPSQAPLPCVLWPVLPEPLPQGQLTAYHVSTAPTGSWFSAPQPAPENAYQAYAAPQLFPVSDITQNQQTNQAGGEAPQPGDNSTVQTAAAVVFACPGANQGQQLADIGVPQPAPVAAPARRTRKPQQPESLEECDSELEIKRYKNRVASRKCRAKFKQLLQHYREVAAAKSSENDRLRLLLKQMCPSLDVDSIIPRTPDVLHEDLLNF", "assay": "EMSA; CpG methylated; EMSA with wheat germ in vitro translated Zta and 32P-labelled ds oligonucleotides; buffer, salt, pH and temperature not given (as in ref 39)"}, "[2]": {"molecular_target": "T1, Zta (BZLF1, ZEBRA, EB1)", "assay": "EMSA; unmethylated; class III; EMSA with wheat germ in vitro translated Zta and 32P-labelled ds oligonucleotides; buffer, salt, pH and temperature not given (as in ref 39)"}, "[3]": {"molecular_target": "T1, Zta (BZLF1, ZEBRA, EB1)", "assay": "EMSA; EMSA with wheat germ in vitro translated Zta and 32P-labelled ds oligonucleotides; buffer, salt, pH and temperature not given (as in ref 39)"}},
  "data": [
    {"binder": "B1", "values": [
      {"measurement": "binding result", "setting": "[1]", "result": "binds"}
    ]},
    {"binder": "B2", "values": [
      {"measurement": "binding result", "setting": "[2]", "result": "no binding"}
    ]},
    {"binder": "B3", "values": [
      {"measurement": "binding result", "setting": "[3]", "result": "binds"}
    ]}
  ]
}
